The record followed here is article PMC7496394.

Data set [1] concerns the target recombinant and mature MDA1 (Arabidopsis thaliana) (UniProt F4JVI3). Briefly: SEC. On the technique in general: SEC sorts molecules by how far they enter the pores of the column.
Data set [2] has as its target T1, rMDA1 (mature MDA1) (Arabidopsis thaliana, UniProt F4JVI3 44-493).
T1 sequence: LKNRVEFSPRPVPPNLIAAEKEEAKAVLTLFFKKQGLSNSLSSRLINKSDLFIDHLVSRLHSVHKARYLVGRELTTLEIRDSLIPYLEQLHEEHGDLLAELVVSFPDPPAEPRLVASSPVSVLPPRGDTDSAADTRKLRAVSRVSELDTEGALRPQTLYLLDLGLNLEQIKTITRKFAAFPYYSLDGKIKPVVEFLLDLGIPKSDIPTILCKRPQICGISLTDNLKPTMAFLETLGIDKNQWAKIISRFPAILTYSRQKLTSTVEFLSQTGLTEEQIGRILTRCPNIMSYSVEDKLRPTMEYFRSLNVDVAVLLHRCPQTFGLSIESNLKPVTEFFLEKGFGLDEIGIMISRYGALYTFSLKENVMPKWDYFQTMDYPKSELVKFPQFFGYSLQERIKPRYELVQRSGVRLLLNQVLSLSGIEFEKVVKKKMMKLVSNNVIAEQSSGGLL
Put plainly: EMSA. Background: In EMSA bound probe runs differently from free probe, usually more slowly.

Data set [3] has as its target T1, rMDA1 (mature MDA1). Put plainly: EMSA. This is another data set of the same source.
In data set [4] the target is T1, rMDA1 (mature MDA1). Put plainly: EMSA. The source holds these as a separate data set.
Data set [5] has as its target T1, rMDA1 (mature MDA1). Put plainly: EMSA. The source holds these as a separate data set.
The target of data set [6] is T1, rMDA1 (mature MDA1). Briefly: EMSA. This is another data set of the same source.

Where two headings read alike, the source gives them in different places.

As usually defined, the stoichiometry N is the number of molecules, sites or subunits per partner or assembly. For “recombinant and mature MDA1 (from UniProt F4JVI3 130-493) (domain or fragment)”, the stoichiometry N in data set [1] worked out at 2.

B1: psbE E5 (dsDNA)
DNA 1: TTAATTTACTTATTCATCTTTTACAGA
DNA 2: TCTGTAAAAGATGAATAAGTAAATTAA
As to B1, in data set [2], the binding result is recorded as “no binding”.

On to GATATGCGCGAATTCCTGTAGAACGAACACTAGAAGAAA (ssDNA) [ssDNA random probe], for which the binding result in data set [3] is “no binding”.

B2: dsDNA random probe (dsDNA)
DNA 1: GATATGCGCGAATTCCTGTAGAACGAACACTAGAAGAAA
DNA 2: TTTCTTCTAGTGTTCGTTCTACAGGAATTCGCGCATATC
For the molecule B2, the binding result in data set [4] is recorded as “binds”.

For GAUAUGCGCGAAUUCCUGUAGAACGAACACUAGAAGAAA (ssRNA) [ssRNA random probe], in data set [5], the binding result was “binds”.

B3: dsRNA random probe (dsRNA)
RNA 1: GAUAUGCGCGAAUUCCUGUAGAACGAACACUAGAAGAAA
RNA 2: UUUCUUCUAGUGUUCGUUCUACAGGAAUUCGCGCAUAUC
With B3, in data set [3], the binding result was “no binding”.

For the molecule UCUGAUUCGAGGGGGUCCCGUUGAAC (ssRNA) [3' psbJ sRNA], the binding result in data set [6] is given as “no binding”.

On to UGGCUGAUAUUAUGACGAUAC (ssRNA) [5' ndhA sRNA], for which, in data set [6], the binding result is reported as “no binding”.

Turning to GUAGACUCUAAAAAUACCCUUGGUACUUU (ssRNA) [5' psbE sRNA], in data set [6], the binding result was “no binding”.

Consider GUUUUAAACAAGAGACAGAAACAAAGA (ssRNA) [3' ndhA sRNA], for which, in data set [6], the binding result is given as “no binding”.

B4: ndhA A10 (dsDNA)
DNA 1: TATTGGGAATCATAACAGGTGTACTAG
DNA 2: CTAGTACACCTGTTATGATTCCCAATA
For the molecule B4, the binding result in data set [2] is “binds”.

B5: psbE E4 (dsDNA)
DNA 1: ATTGACGATCTCACAAAGATGCAATCT
DNA 2: AGATTGCATCTTTGTGAGATCGTCAAT
Consider B5, for which the binding result in data set [2] is on record as “binds”.
